Test results published in patent publication US20260258115A1 (MAPP BIOPHARMACEUTICAL, published 2026).
Residue numbers refer to the chain shown, from its start.

B1: ADI-25484 (antibody, V domains shown)
VH: EVQLVESGGGLVKPGGSLRLSCAASGFTFSSYSMNWVRQAPGKGLEWVSSISSSSSYIYYADSVKGRFTISRDNAKNSLYLQMNSLRAEDTAVYYCARSIAVAGTGYGMDVWGQGTTVTVSS
VL: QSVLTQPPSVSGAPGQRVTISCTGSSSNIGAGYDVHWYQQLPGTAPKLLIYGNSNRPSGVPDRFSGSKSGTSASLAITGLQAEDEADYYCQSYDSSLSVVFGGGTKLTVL
notes: full-length IgG
B2: ADI-25495 (antibody, V domains shown)
VH: QVQLVQSGGGLVKPGGSLRLSCAASGFTFSSYSMNWVRQAPGKGLEWVSSISSSSSYIYYADSVKGRFTISRDNAKNSLYLQMNSLRAEDTAVYYCARGYCTNGVCYLDAFDIWGQGTTVTVSS
VL: QSVLIQPASVSGSPGQSITISCTGTSSDVGGYNYVSWYQQHPGKAPKLMIYDVSNRPSGVSNRFSGSKSGNTASLTISGLQAEDEADYYCSSYTSSSTPVVFGGGTKVTVL
notes: full-length IgG
B3: ADI-25479 (antibody, V domains shown)
VH: EVQLVESGGGLVKPGGSLRLSCAASGFTFSSYSMNWVRQAPGKGLEWVSSISSSSSYIYYADSVKGRFTISRDNAKNSLYLQMNSLRAEDTAVYYCARGGYSYGAYYYYYMDVWGKGTTVTVSS
VL: QSVLTQPPSVSGAPGQRVTISCTGSSSNIGAGYDVHWYQQLPGTAPKLLIYGNSNRPSGVPDRFSGSKSGTSASLAITGLQAEDEADYYCQSYDSSLSGYWVFGGGTKLTVL
notes: full-length IgG
B4: ADI-25480 (antibody, V domains shown)
VH: B3 VH
VL: B3 VL with L109V
notes: full-length IgG; also called Ab 430
B5: ADI-25478 (antibody, V domains shown)
VH: EVQLLESGGGLVKPGGSLRLSCAASGFTFSSYSMNWVRQAPGKGLEWVSSISSSSSYIYYADSVKGRFTISRDNAKNSLYLQMNSLRAEDTAVYYCARLDYSNYYYYMDVWGKGTTVTVSS
VL: QPVLTQPPSVSGAPGQRVTISCTGSSSNIGAGYDVHWYQQLPGTAPKLLIYGNSNRPSGVPDRFSGSKSGTSASLAITGLQAEDEADYYCQSYDSSLSGYVFGTGTKLTVL
notes: full-length IgG
B6: ADI-24792 (antibody, V domains shown)
VH: EVQLVESGGGLVKPGGSLRLSCAASGFIFSDYYMSWIRQAPGKGLEWVSNISGGSSFTNYADSVKGRFTISRDNAKNSLYLQMNSLRAEDTAVYYCARDLGYCSSNSCLDAFDIWGQGTTVTVSS
VL: B5 VL with P2S, S54T, K68R, Y100S, V101L, T104G, L108V
notes: full-length IgG
B7: ADI-19510 (antibody, V domains shown)
VH: EVQLVESGGGLVKPGGSLRLSCAASGFSLSSYYMNWVRQAPGKGLEWVSSISSSSTYINYADSVKGRFTISRDNAKNSLYLQMNSLRAEDTAVYYCARGGSITIFGVVFDSWGQGTLVTVSS
VL: B5 VL with Q1S, P2Y, V3E, S25T, G52V, Y100G, L108V
notes: full-length IgG; also called Ab 210
B8: ADI-24817 (antibody, V domains shown)
VH: EVQLVESGGGLVKPGGSLRLSCAASGFTFSSYSMNWVRQAPGKGLEWVSSISSSSSYIYYADSVKGRFTISRDNAKNSLYLQMNSLRAEDTAVYYCARDSMALLYSNYWFDPWGQGTLVTVSS
VL: B5 VL with P2S, L4V, Y100S, T104G
notes: full-length IgG
B9: ADI-19509 (antibody, V domains shown)
VH: EVQLVESGGGLVKPGGSLRLSCAASGFTFSSYSMNWVRQAPGKGLEWVSSISSSSSYIYYADSVKGRFTISRDNAKNSLYLQMNSLRAEDTAVYYCASSRRSLTGDRGGWFDPWGQGTLVTVSS
VL: B5 VL with P2S, Y100W, T104G
notes: full-length IgG
B10: ADI-24805 (antibody, V domains shown)
VH: B3 VH with E1Q, E6Q, G99E, Y103S, G104S, A105S, Y106G
VL: B5 VL with P2S, Y100S, L108V
notes: full-length IgG; also called Ab 370
B11: ADI-24814 (antibody, V domains shown)
VH: EVQLLESGGGVVQPGRSLRLSCAASGFTFNSYTMHWVRQAPGKGLEWVAVISYDGSNKYYADSVKGRFTISRDNSKNTLYLQMNSLRAEDTAVYYCARGRPYDFWSGYYTDYYYYMDVWGKGTTVTVSS
VL: EIVLTQSPGTLSLSPGERATLSCRASQSVYSNYLAWYQQKPGQAPRLLIYGASSRATGIPDRFSGSGSGTDFTLTISRLEPEDFAVYYCQQCGSSWTFGQGTKVEIK
notes: full-length IgG
B12: ADI-19458 (antibody, V domains shown)
VH: EVQLVESGGGRVKPGGSLRLSCAASGFTFRSYSMNWVRQAPGKGLEWVSSISSSSSYINYADSVKGRFTISRDNAKNSLYLQMNSLRAEDTAVYYCARDGSGMTIFGVVIDYWGQGTLVTVSS
VL: QSVLTQPPSVSGAPGQRVTISCTGSSSNIGAGYDVHWYQQLPGTAPKLLIYGNSNRPSGVPDRFSGSKSGTSASLAITGLQAEDEADYYCQSYDRSLTVVFGGGTKLTVL
notes: full-length IgG
B13: ADI-25532 (antibody, V domains shown)
VH: QVQLVQSGGGLVKPGGSLRLSCAASGFTFSSYSMNWVRQAPGKGLEWVSSISSSSSYIYYADSVKGRFTISRDNAKNSLYLQMNSLRAEDTAVYYCARGSSSSWYYFDYWGQGTLVTVSS
VL: B12 VL with L4V, R95S, T98S, V99Y, G103T, L107V
notes: full-length IgG
B14: ADI-25462 (antibody, V domains shown)
VH: B13 VH with Q1E, Q6E, D73H, Y105F, Y106C
VL: B12 VL with Q1S, S2Y, R95S, T98S, V99Y, G103T
notes: full-length IgG
B15: ADI-24819 (antibody, V domains shown)
VH: B13 VH with Q1E, V5L, Q6E, G99E, S101G, S103G
VL: B12 VL with R95G, T98S, V99G, L107V
notes: full-length IgG

target: T1, RSV postfusion F (postF), subtype A (respiratory syncytial virus subtype A, UniProt P03420 26-513); test: BLI
T1 construct: also called Postfusion subtype A; F deltaFP

Does B1 bind?
Result: no binding

Does B2 bind?
Result: no binding

Does B3 bind?
Result: no binding

Does B4 bind?
Result: no binding

Does B5 bind?
Result: no binding

Does B6 bind?
Result: no binding

Does B7 bind?
Result: no binding

Does B8 bind?
Result: no binding

Does B9 bind?
Result: no binding

Does B10 bind?
Result: no binding

Does B11 bind?
Result: no binding

Does B12 bind?
Result: no binding

Does B13 bind?
Result: no binding

Does B14 bind?
Result: no binding

Does B15 bind?
Result: no binding

target: T2, RSV prefusion F (preF), subtype B (respiratory syncytial virus subtype B); test: BLI, IgG
T2 construct: also called Prefusion subtype B

With B1 as the binder, how does the Kd read?
Its Kd is 18.4 nM.

Which Kd does the source give for B2 here?
Its Kd is 6.41 nM.

Which Kd does the source give for B3 here?
Its Kd is 4.29 nM.

How did the Kd turn out when B4 was run?
Its Kd is 4.27 nM.

For B5, which Kd is on record?
The Kd was 6.43 nM.

With B6 as the binder, how does the Kd read?
Its Kd is 1.83 nM.

B7 was tested. Which Kd did it give?
Its Kd is 0.239 nM.

For B8, which Kd is on record?
The Kd was 9.23 nM.

With B9 as the binder, how does the Kd read?
Its Kd is 1.58 nM.

With B10 as the binder, how does the Kd read?
Its Kd is 4.88 nM.

With B11 as the binder, how does the Kd read?
Its Kd is 2.39 nM.

B12 was tested. Which Kd did it give?
The Kd was 0.243 nM.

How did the Kd turn out when B13 was run?
The Kd was 1.56 nM.

With B14 as the binder, how does the Kd read?
The Kd was 1.71 nM.

B15 was tested. Which Kd did it give?
Its Kd is 9.44 nM.

target: RSV F on RSV subtype A virus (mKate-RSV A2) (respiratory syncytial virus A2, UniProt P03420 26-574); test: cell-based or functional assay

For B1, which “Neut IC50 subtype A” value is on record?
The value was 15.3 µg/mL.

For B2, which “Neut IC50 subtype A” value is on record?
Its value is 0.24 µg/mL.

For B3, which “Neut IC50 subtype A” value is on record?
Its value is 0.24 µg/mL.

How did the “Neut IC50 subtype A” value turn out when B4 was run?
Its value is 0.17 µg/mL.

How did the “Neut IC50 subtype A” value turn out when B5 was run?
The value was 2.18 µg/mL.

With B6 as the binder, how does the “Neut IC50 subtype A” value read?
The value was 0.27 µg/mL.

How did the “Neut IC50 subtype A” value turn out when B7 was run?
The value was 0.16 µg/mL.

With B8 as the binder, how does the “Neut IC50 subtype A” value read?
The value was 2.2 µg/mL.

For B9, which “Neut IC50 subtype A” value is on record?
The value was 3.42 µg/mL.

B10 was tested. Which “Neut IC50 subtype A” value did it give?
Its value is 0.21 µg/mL.

Which “Neut IC50 subtype A” value does the source give for B11 here?
The value was 0.73 µg/mL.

How did the “Neut IC50 subtype A” value turn out when B12 was run?
The value was 0.04 µg/mL.

How did the “Neut IC50 subtype A” value turn out when B13 was run?
Its value is 0.04 µg/mL.

Which “Neut IC50 subtype A” value does the source give for B14 here?
Its value is 0.15 µg/mL.

B15 was tested. Which “Neut IC50 subtype A” value did it give?
The value was 4.33 µg/mL.

target: RSV F on RSV subtype B virus (mKate-RSV B 18537) (respiratory syncytial virus B 18537, UniProt P13843 26-574); test: cell-based or functional assay

Which “Neut IC50 subtype B” value does the source give for B1 here?
The value was 8.58 µg/mL.

With B2 as the binder, how does the “Neut IC50 subtype B” value read?
The value was 5.6 µg/mL.

With B3 as the binder, how does the “Neut IC50 subtype B” value read?
Its value is 0.29 µg/mL.

How did the “Neut IC50 subtype B” value turn out when B4 was run?
The value was 0.17 µg/mL.

For B5, which “Neut IC50 subtype B” value is on record?
The value was 3.52 µg/mL.

Which “Neut IC50 subtype B” value does the source give for B6 here?
Its value is 0.19 µg/mL.

With B7 as the binder, how does the “Neut IC50 subtype B” value read?
The value was 0.83 µg/mL.

How did the “Neut IC50 subtype B” value turn out when B8 was run?
The value was 4.4 µg/mL.

With B9 as the binder, how does the “Neut IC50 subtype B” value read?
The value was 1.56 µg/mL.

With B10 as the binder, how does the “Neut IC50 subtype B” value read?
Its value is 0.71 µg/mL.

With B11 as the binder, how does the “Neut IC50 subtype B” value read?
The value was 0.32 µg/mL.

For B12, which “Neut IC50 subtype B” value is on record?
Its value is 0.07 µg/mL.

How did the “Neut IC50 subtype B” value turn out when B13 was run?
Its value is 0.05 µg/mL.

With B14 as the binder, how does the “Neut IC50 subtype B” value read?
Its value is 0.11 µg/mL.

B15 was tested. Which “Neut IC50 subtype B” value did it give?
Its value is 6.28 µg/mL.
